Reference: publication PMC6483157, “Structure of the human ClC-1 chloride channel” (PLoS Biology, 2019)

Biological target: the molecule itself
Test: cryo-EM structure; single-particle cryo-EM of purified ClC-1 in amphipol PMAL-C8; 20 mM Tris pH 7.5, 100 mM NaCl, 0.2 mM TCEP, no nucleotides or antibodies; also 20 mM BisTris pH 6.2 with 0.3 mM NAD; C2 symmetry applied

B1: human ClC-1 chloride channel (natural protein, UniProt P35523 1-988, looked up)
chain: MEQSRSQQRGGEQSWWGSDPQYQYMPFEHCTSYGLPSENGGLQHRLRKDAGPRHNVHPTQIYGHHKEQFSDREQDIGMPKKTGSSSTVDSKDEDHYSKCQDCIHRLGQVVRRKLGEDGIFLVLLGLLMALVSWSMDYVSAKSLQAYKWSYAQMQPSLPLQFLVWVTFPLVLILFSALFCHLISPQAVGSGIPEMKTILRGVVLKEYLTMKAFVAKVVALTAGLGSGIPVGKEGPFVHIASICAAVLSKFMSVFCGVYEQPYYYSDILTVGCAVGVGCCFGTPLGGVLFSIEVTSTYFAVRNYWRGFFAATFSAFVFRVLAVWNKDAVTITALFRTNFRMDFPFDLKELPAFAAIGICCGLLGAVFVYLHRQVMLGVRKHKALSQFLAKHRLLYPGIVTFVIASFTFPPGMGQFMAGELMPREAISTLFDNNTWVKHAGDPESLGQSAVWIHPRVNVVIIIFLFFVMKFWMSIVATTMPIPCGGFMPVFVLGAAFGRLVGEIMAMLFPDGILFDDIIYKILPGGYAVIGAAALTGAVSHTVSTAVICFELTGQIAHILPMMVAVILANMVAQSLQPSLYDSIIQVKKLPYLPDLGWNQLSKYTIFVEDIMVRDVKFVSASYTYGELRTLLQTTTVKTLPLVDSKDSMILLGSVERSELQALLQRHLCPERRLRAAQEMARKLSELPYDGKARLAGEGLPGAPPGRPESFAFVDEDEDEDLSGKSELPPSLALHPSTTAPLSPEEPNGPLPGHKQQPEAPEPAGQRPSIFQSLLHCLLGRARPTKKKTTQDSTDLVDNMSPEEIEAWEQEQLSQPVCFDSCCIDQSPFQLVEQTTLHKTHTLFSLLGLHLAYVTSMGKLRGVLALEELQKAIEGHTKSGVQLRPPLASFRNTTSTRKSTGAPPSSAENWNLPEDRPGATGTGDVIAASPETPVPSPSPEPPLSLAPGKVEGELEELELVESPGLEEELADILQGPSLRSTDEEDEDELIL
notes: human ClC-1 chloride channel, full length, from yeast codon-optimized cDNA; followed by a TEV cleavage site, GFP and His10; released from the Ni-beads by TEV protease; The models cover only part of the chain: membrane domain residues 115-589 (loop 254-261 missing) and trimmed CBS domains; The N terminus and helix A are not resolved; source: yeast strain PAP1500 (pEMBLyex4), 15-L bioreactors; …
binding result: binds
